Legend:
Experiment in all cases: cell-based or functional assay
[1] = target: T1, Trypsin-like protease (TL5) from Fusarium solani (Fusarium solani)
T1 sequence: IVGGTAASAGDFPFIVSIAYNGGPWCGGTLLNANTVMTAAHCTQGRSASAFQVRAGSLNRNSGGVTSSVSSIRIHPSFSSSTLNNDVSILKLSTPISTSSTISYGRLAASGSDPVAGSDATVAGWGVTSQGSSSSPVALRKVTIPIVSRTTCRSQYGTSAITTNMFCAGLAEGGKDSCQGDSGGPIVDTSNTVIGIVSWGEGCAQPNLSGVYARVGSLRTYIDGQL

[2] = target: T2, Trypsin-like protease (TL1) from Fusarium oxysporum (Fusarium oxysporum) (UniProt P35049)
T2 sequence: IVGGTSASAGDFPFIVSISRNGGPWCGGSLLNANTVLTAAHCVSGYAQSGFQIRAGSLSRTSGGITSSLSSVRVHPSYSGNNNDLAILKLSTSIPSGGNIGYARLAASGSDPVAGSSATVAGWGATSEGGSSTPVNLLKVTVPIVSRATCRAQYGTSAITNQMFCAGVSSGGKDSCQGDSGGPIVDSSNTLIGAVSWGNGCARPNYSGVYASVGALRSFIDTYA

[3] = target: porcine trypsin (porcine) (UniProt P00761)
[4] = target: T3, Trypsin-like protease (TL6) from Fusarium cf. solani (Fusarium cf. solani)
T3 sequence: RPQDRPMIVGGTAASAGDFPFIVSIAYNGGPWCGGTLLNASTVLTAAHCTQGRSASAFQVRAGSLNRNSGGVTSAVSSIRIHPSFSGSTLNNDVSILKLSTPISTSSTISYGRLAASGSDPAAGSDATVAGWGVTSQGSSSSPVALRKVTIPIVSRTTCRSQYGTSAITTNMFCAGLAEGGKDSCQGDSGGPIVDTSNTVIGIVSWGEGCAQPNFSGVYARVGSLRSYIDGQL

bovine trypsin (bovine) = bovine trypsin (bovine) (UniProt P00760)

B1: Bowman-Birk inhibitor (commercial preparation, Cat # T-9777, Sigma-Aldrich) (protein, UniProt P01055 40-110, looked up)
chain: DDESSKPCCDQCACTKSNPPQCRCSDMRLNSCHSACKSCICALSYPAQCFCVDITDFCYEPCKPSEDDKEN
% residual activity at 0.00048 mg/ml Bowman-Birk inhibitor (% residual activity) [1]: 78 | % residual activity at 0.00097 mg/ml Bowman-Birk inhibitor (% residual activity) [1]: 71 | % residual activity at 0.00195 mg/ml Bowman-Birk inhibitor (% residual activity) [1]: 57 | % residual activity at 0.0039 mg/ml Bowman-Birk inhibitor (% residual activity) [1]: 55 | % residual activity at 0.0078 mg/ml Bowman-Birk inhibitor (% residual activity) [1]: 43 | % residual activity at 0.0156 mg/ml Bowman-Birk inhibitor (% residual activity) [1]: 29 | % residual activity at 0.0313 mg/ml Bowman-Birk inhibitor (% residual activity) [1]: 19 | % residual activity at 0.0625 mg/ml Bowman-Birk inhibitor (% residual activity) [1]: 7.2 | % residual activity at 0.125 mg/ml Bowman-Birk inhibitor (% residual activity) [1]: 3.1 | % residual activity at 0.25 mg/ml Bowman-Birk inhibitor (% residual activity) [1]: 1.2 | % residual activity at 0.5 mg/ml Bowman-Birk inhibitor (% residual activity) [1]: 0.5 | % residual activity at 0.00048 mg/ml Bowman-Birk inhibitor (% residual activity) [2]: 117 | % residual activity at 0.00097 mg/ml Bowman-Birk inhibitor (% residual activity) [2]: 111 | % residual activity at 0.00195 mg/ml Bowman-Birk inhibitor (% residual activity) [2]: 103 | % residual activity at 0.0039 mg/ml Bowman-Birk inhibitor (% residual activity) [2]: 109 | % residual activity at 0.0078 mg/ml Bowman-Birk inhibitor (% residual activity) [2]: 82 | % residual activity at 0.0156 mg/ml Bowman-Birk inhibitor (% residual activity) [2]: 61 | % residual activity at 0.0313 mg/ml Bowman-Birk inhibitor (% residual activity) [2]: 32 | % residual activity at 0.0625 mg/ml Bowman-Birk inhibitor (% residual activity) [2]: 13 | % residual activity at 0.125 mg/ml Bowman-Birk inhibitor (% residual activity) [2]: 5.8 | % residual activity at 0.25 mg/ml Bowman-Birk inhibitor (% residual activity) [2]: 2.2 | % residual activity at 0.5 mg/ml Bowman-Birk inhibitor (% residual activity) [2]: 0.8 | % residual activity at 0.00048 mg/ml Bowman-Birk inhibitor (% residual activity) [3]: 11 | % residual activity at 0.00097 mg/ml Bowman-Birk inhibitor (% residual activity) [3]: 9.4 | % residual activity at 0.00195 mg/ml Bowman-Birk inhibitor (% residual activity) [3]: 8.3 | % residual activity at 0.0039 mg/ml Bowman-Birk inhibitor (% residual activity) [3]: 6.2 | % residual activity at 0.0078 mg/ml Bowman-Birk inhibitor (% residual activity) [3]: 3.2 | % residual activity at 0.0156 mg/ml Bowman-Birk inhibitor (% residual activity) [3]: 2.2 | % residual activity at 0.0313 mg/ml Bowman-Birk inhibitor (% residual activity) [3]: 1 | % residual activity at 0.0625 mg/ml Bowman-Birk inhibitor (% residual activity) [3]: 0.4 | % residual activity at 0.125 mg/ml Bowman-Birk inhibitor (% residual activity) [3]: 0.2 | % residual activity at 0.25 mg/ml Bowman-Birk inhibitor (% residual activity) [3]: 0.1 | % residual activity at 0.5 mg/ml Bowman-Birk inhibitor (% residual activity) [3]: 0.1 | % residual activity at 0.00048 mg/ml Bowman-Birk inhibitor (% residual activity) [4]: 104 | % residual activity at 0.00097 mg/ml Bowman-Birk inhibitor (% residual activity) [4]: 107 | % residual activity at 0.00195 mg/ml Bowman-Birk inhibitor (% residual activity) [4]: 94 | % residual activity at 0.0039 mg/ml Bowman-Birk inhibitor (% residual activity) [4]: 97 | % residual activity at 0.0078 mg/ml Bowman-Birk inhibitor (% residual activity) [4]: 84 | % residual activity at 0.0156 mg/ml Bowman-Birk inhibitor (% residual activity) [4]: 66 | % residual activity at 0.0313 mg/ml Bowman-Birk inhibitor (% residual activity) [4]: 55 | % residual activity at 0.0625 mg/ml Bowman-Birk inhibitor (% residual activity) [4]: 26 | % residual activity at 0.125 mg/ml Bowman-Birk inhibitor (% residual activity) [4]: 9.5 | % residual activity at 0.25 mg/ml Bowman-Birk inhibitor (% residual activity) [4]: 2.9 | % residual activity at 0.5 mg/ml Bowman-Birk inhibitor (% residual activity) [4]: 1.3 | % residual activity at 0.00048 mg/ml Bowman-Birk inhibitor (% residual activity) (bovine trypsin (bovine)): 0.9 | % residual activity at 0.00097 mg/ml Bowman-Birk inhibitor (% residual activity) (bovine trypsin (bovine)): 5.3 | % residual activity at 0.00195 mg/ml Bowman-Birk inhibitor (% residual activity) (bovine trypsin (bovine)): 0.1 | % residual activity at 0.0039 mg/ml Bowman-Birk inhibitor (% residual activity) (bovine trypsin (bovine)): -0.4 | % residual activity at 0.0078 mg/ml Bowman-Birk inhibitor (% residual activity) (bovine trypsin (bovine)): 0 | % residual activity at 0.0156 mg/ml Bowman-Birk inhibitor (% residual activity) (bovine trypsin (bovine)): -1.5 | % residual activity at 0.0313 mg/ml Bowman-Birk inhibitor (% residual activity) (bovine trypsin (bovine)): 0.1 | % residual activity at 0.0625 mg/ml Bowman-Birk inhibitor (% residual activity) (bovine trypsin (bovine)): 0 | % residual activity at 0.125 mg/ml Bowman-Birk inhibitor (% residual activity) (bovine trypsin (bovine)): 0 | % residual activity at 0.25 mg/ml Bowman-Birk inhibitor (% residual activity) (bovine trypsin (bovine)): 0 | % residual activity at 0.5 mg/ml Bowman-Birk inhibitor (% residual activity) (bovine trypsin (bovine)): 0
